The record followed here is paper PMC5405039, “Genome-wide identification of grain filling genes regulated by the OsSMF1 transcription factor in rice”.

T1: OsSMF1 (RISBZ1, OsbZIP58)-DsRed fusion (Oryza sativa cv. Ilmi, UniProt Q6ZLB0 1-436)
T1 sequence: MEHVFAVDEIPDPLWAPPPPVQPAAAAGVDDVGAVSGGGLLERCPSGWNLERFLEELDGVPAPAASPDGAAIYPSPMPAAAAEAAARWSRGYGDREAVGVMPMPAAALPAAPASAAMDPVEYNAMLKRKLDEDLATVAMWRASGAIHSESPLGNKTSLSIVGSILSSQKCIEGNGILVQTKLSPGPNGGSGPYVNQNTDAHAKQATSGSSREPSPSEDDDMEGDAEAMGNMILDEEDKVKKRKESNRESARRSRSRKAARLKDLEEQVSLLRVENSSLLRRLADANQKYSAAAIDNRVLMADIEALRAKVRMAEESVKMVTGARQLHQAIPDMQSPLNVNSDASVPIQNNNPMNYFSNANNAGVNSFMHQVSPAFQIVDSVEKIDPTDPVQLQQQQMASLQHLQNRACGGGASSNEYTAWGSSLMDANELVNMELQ

B1: ATGA 21-bp wild type (dsDNA)
DNA 1: CTGATTCGGATGACGGACGAA
DNA 2: TTCGTCCGTCATCCGAATCAG
B2: GCN4 21-bp wild type (dsDNA)
DNA 1: GTTTGTCATGGCTGAGTCATG
DNA 2: CATGACTCAGCCATGACAAAC
B3: ACGT 21-bp wild type (dsDNA)
DNA 1: AAGCGCCACGTCAGCCAAAAC
DNA 2: GTTTTGGCTGACGTGGCGCTT

For this series, the target named is T1, OsSMF1 (RISBZ1, OsbZIP58)-DsRed fusion. Briefly: EMSA (SYBR Gold); 5 mM MgCl2; Kd EMSA: 10 mM Tris, 50 mM KCl, 1 mM DTT pH 7.5, 50 ng/ul poly(dI-dC), 2.5% glycerol, 0.05% NP-40, 5 mM MgCl2, 0.2 ug/ul OsSMF1, DNA 0-6 uM, 1 h room temperatur. Particulars: protein: recombinant; tags: DsRed fusion; Ni-NTA purified; chain copies: 2; SYBR Gold stain (Kd); 21 bp. (A gel shift assay detects complexes by their altered migration in electrophoresis.)
As a reminder, the Kd is the equilibrium constant for the complex coming apart. In the case of B1, the equilibrium dissociation constant (Kd) amounted to 1120 nM.
With B2 the figure was 646 nM; with B3, 335 nM.
